Literature values as cited in article PMC11394293.

Target: s-Klotho KL1/KL2 (Homo sapiens) (UniProt Q9UEF7)
Chain of UniProt Q9UEF7 (Q9UEF7 34-981): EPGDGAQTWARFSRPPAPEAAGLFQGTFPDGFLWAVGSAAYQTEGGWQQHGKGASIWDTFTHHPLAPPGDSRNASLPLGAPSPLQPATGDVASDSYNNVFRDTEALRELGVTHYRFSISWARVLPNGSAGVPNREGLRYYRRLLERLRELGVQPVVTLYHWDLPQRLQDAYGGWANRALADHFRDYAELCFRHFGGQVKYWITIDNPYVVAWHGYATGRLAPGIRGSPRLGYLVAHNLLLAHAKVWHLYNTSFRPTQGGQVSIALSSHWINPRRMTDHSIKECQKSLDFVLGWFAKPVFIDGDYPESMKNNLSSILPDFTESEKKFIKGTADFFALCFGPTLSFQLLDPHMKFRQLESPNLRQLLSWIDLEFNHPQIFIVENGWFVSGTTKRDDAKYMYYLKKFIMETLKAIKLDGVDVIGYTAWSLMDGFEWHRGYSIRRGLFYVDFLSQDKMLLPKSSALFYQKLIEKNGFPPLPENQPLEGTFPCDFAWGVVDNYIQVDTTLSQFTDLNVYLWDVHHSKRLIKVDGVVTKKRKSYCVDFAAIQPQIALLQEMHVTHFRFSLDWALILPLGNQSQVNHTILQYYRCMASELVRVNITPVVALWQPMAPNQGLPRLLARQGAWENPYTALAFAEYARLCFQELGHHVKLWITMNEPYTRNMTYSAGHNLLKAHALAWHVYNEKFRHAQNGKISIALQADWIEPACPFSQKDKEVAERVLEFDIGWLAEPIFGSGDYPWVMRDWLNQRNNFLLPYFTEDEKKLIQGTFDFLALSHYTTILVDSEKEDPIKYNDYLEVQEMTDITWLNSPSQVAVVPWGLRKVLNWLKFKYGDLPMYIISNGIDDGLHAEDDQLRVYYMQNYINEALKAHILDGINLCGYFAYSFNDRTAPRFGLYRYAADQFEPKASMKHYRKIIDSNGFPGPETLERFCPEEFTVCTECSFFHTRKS

Substance: FGF23 (from UniProt Q9GZV9)
- Kd: 14 nM
